Test results: US20190359710A1 (FRIEDRICH ALEXANDER UNIVERSIT T ERLANGEN N RNBERG, published 2019)
Substitutions are numbered along the chain they refer to.

B1: humanized CD16-specific scFv variant 1/3 (Vk1 / VH3 frameworks, LH order, (Gly4Ser)4x linker) (scFv)
chain: DIVLTQSPSSLSASVGDRVTITCKASQSVDFDGDSFMNWYQQKPGKAPKLLIYTTSNLESGVPSRFSASGSGTDFTLTISSLQPEDFATYYCQQSNEDPYTFGQGTKVEIKRGGGGSGGGGSGGGGSGGGGSEVQLVESGGGDVQPGGSLRLSCAFSGFSLRTSGMGVGWIRQAPGKGLEWVAHIWWDDDKRYNPSVKGRFTISKDTSSNTVYLQMNSLRAEDTAVYYCAQINPAWFAYWGQGTLVTVSS
B2: single chain triplebody SPM-2, hu(33-ds16-ds123RK) (other)
chain: EVQLVESGGGLIQPGGSLRLSCAASGFPLTSYGVSWVRQPPGKGLEWLGVIWGDGSTNYHSALISRFTISRDNSKNTLYLQMNSLRAEDTAVYYCARDTYYPYYAMDYWGQGTTVTVSSGGGGSGGGGSGGGGSDIQMTQSPSSLSASVGDRVTITCKASQDVSTAVAWYQQKPGKAPKLLIYSASYRYTGVPSRFSGSGSGTDFTLTISSLQPEDFATYYCQQHYSTPLTFGQGTKLEIKRGGGGSGGGGSGGGGSGGGGSDIVLTQSPSSLSASVGDRVTITCKASQSVDFDGDSFMNWYQQKPGKAPKLLIYTTSNLESGVPSRFSASGSGTDFTLTISSLQPEDFATYYCQQSNEDPYTFGCGTKVEIKRGGGGSGGGGSGGGGSGGGGSEVQLVESGGGDVQPGGSLRLSCAFSGFSLRTSGMGVGWIRQAPGKCLEWVAHIWWDDDKRYNPSVKGRFTISKDTSSNTVYLQMNSLRAEDTAVYYCAQINPAWFAYWGQGTLVTVSSGGGGSGGGGSGGGGSGGGGSEVQLVESGGGLVQPGGSLRLSCAASGFTFTDYYMSWVRQAPGKCLEWLALIRSKADGYTTEYSASVKGRFTISRDDSKNSLYLQMNSLKTEDTAVYYCARDAAYYSYYSPEGAMDYWGQGTSVTVSSGGGGSGGGGSGGGGSDIQMTQSPSSLSASVGDRVTITCKASQNVDSAVAWYQQKPGKAPKALIYSASYRYSGVPSRFSGSGSGTDFTLTISSLQPEDFATYYCQQYYSTPWTFGCGTKVEIKRGGGGSHHHHHH
notes: Trispecific single-chain triplebody made of three scFvs in tandem, produced in HEK293 F cells; also called 33-ds16-ds123 (SPM-2)
B3: triplebody hu[33-ds16-123] (other)
chain: EVQLVESGGGLIQPGGSLRLSCAASGFPLTSYGVSWVRQPPGKGLEWLGVIWGDGSTNYHSALISRFTISRDNSKNTLYLQMNSLRAEDTAVYYCARDTYYPYYAMDYWGQGTTVTVSSGGGGSGGGGSGGGGSDIQMTQSPSSLSASVGDRVTITCKASQDVSTAVAWYQQKPGKAPKLLIYSASYRYTGVPSRFSGSGSGTDFTLTISSLQPEDFATYYCQQHYSTPLTFGQGTKLEIKRGGGGSGGGGSGGGGSGGGGSDIVLTQSPSSLSASVGDRVTITCKASQSVDFDGDSFMNWYQQKPGKAPKLLIYTTSNLESGVPSRFSASGSGTDFTLTISSLQPEDFATYYCQQSNEDPYTFGCGTKVEIKRGGGGSGGGGSGGGGSGGGGSEVQLVESGGGDVQPGGSLRLSCAFSGFSLRTSGMGVGWIRQAPGKCLEWVAHIWWDDDKRYNPSVKGRFTISKDTSSNTVYLQMNSLRAEDTAVYYCAQINPAWFAYWGQGTLVTVSSGGGGSGGGGSGGGGSGGGGSEVQLVESGGGLVQPGGSLRLSCAASGFTFTDYYMSWVRQAPGKGLEWLALIRSKADGYTTEYSASVKGRFTISRDDSKNSLYLQMNSLKTEDTAVYYCARDAAYYSYYSPEGAMDYWGQGTSVTVSSGGGGSGGGGSGGGGSDIQMTQSPSSLSASVGDRVTITCKASQNVDSAVAWYQQKPGKAPKALIYSASYRYSGVPSRFSGSGSGTDFTLTISSLQPEDFATYYCQQYYSTPWTFGQGTKVEIKR
B4: candidate triplebody hu[33-ds16-ds123RK] before polishing of the sequence (other, not shown: small tags and cut ends)
chain: B3 chain with G576C, Q774C
notes: the list of removed pieces may not be complete; also called variant (f)

Columns and labels:
[1] = target: T1, human CD16 (human, UniProt P08637 17-254); test: cytofluorimetry on CHO cells stably transfected with CD16
T1 construct: whole, on cells; also called hu CD16; CHO16-10 CD16+
T1 sequence (P08637 17-254): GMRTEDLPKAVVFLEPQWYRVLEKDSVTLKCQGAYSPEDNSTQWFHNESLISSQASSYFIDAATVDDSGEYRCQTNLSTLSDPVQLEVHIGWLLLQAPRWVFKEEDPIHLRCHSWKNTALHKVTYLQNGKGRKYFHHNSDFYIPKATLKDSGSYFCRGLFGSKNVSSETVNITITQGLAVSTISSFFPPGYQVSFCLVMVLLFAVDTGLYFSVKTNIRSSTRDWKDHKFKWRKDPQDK

[2] = target: T1, human CD16; test: affinity for CD16, method not named in the table (antigen on mammalian cells by the text)
[3] = target: T2, human CD33 (human, UniProt P20138 18-364); test: affinity for CD33, method not named in the table (antigen on mammalian cells by the text)
T2 construct: whole, on cells; also called U937 CD33+
T2 sequence (P20138 18-364): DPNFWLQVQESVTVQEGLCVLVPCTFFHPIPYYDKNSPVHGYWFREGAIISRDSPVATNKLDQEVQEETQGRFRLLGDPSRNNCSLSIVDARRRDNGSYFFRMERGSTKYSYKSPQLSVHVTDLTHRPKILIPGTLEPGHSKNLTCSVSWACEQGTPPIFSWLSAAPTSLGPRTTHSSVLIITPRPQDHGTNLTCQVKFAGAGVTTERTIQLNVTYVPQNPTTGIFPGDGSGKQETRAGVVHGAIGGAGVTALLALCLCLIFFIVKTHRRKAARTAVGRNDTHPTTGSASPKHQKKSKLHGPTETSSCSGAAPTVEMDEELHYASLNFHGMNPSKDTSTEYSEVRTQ

[4] = target: T3, human CD123 (alpha chain of the interleukin-3 receptor) (human, UniProt P26951 19-378); test: affinity for CD123, method not named in the table (antigen on mammalian cells by the text)
T3 construct: also called 239 CD123+; HEK293.123
T3 sequence (P26951 19-378 limits assumed): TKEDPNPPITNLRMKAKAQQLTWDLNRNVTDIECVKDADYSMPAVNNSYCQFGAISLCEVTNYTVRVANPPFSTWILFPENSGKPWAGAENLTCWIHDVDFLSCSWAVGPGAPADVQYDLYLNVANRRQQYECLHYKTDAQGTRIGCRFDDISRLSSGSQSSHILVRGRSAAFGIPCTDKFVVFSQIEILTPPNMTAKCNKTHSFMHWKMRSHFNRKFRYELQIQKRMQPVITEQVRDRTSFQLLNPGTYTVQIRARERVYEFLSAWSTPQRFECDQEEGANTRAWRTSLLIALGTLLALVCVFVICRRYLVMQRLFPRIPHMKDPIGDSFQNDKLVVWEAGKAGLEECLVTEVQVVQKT

[5] = target: T3, human CD123 (alpha chain of the …); test: calibrated flow cytometry on CD123-transfected HEK293 cells
Protocol: (§1) The remaining triplebodies (a), (b), (d) and (f) from the above list were further analyzed. Equilibrium binding constants (KD) of each of the component scFvs carried in these triplebodies were determined by calibrated flow cytometry (Table 5). Thermo-stability in human serum was evaluated by incubation in human serum at 37° C. in vitro, and the binding ability to CD33, CD16 and CD123 on antigen single-positive mammalian cells was measured by FACS-analysis. Residual binding capacity (in % of the starting value) was evaluated after incubation for various lengths of time (Table 5).
(§2) In the top 2 rows the variant humanized according to AHo was used, in the bottom 2 rows the variant humanized according to RK was used. U937 cells are single-positive for CD33; CHO16-10 cells are single-positive (stably transfected) variants for hu CD16; […] are a stably transfected variant of HEK293, single-positive for CD123; MOLM13 cells are a stable, human AML-derived cell line double-positive for CD123 and CD33. n = number of independent experiments performed. Numbers in the table are arithmetic means from n separate measurements ± the Standard Error of the Mean (SEM).

[6] = target: T2, human CD33; test: calibrated flow cytometry on U937 cells (CD33 single-positive)
Protocol: as §1, §2

[7] = target: T1, human CD16; test: calibrated flow cytometry on CHO16-10 cells (CD16 single-positive)
Protocol: as §1, §2

Row | Binder | Kd [1] [nM] | Kd [2] [nM] | Kd [3] [nM] | Kd [4] [nM] | Kd [5] [nM] | Kd [6] [nM] | Kd [7] [nM]
1 | B1 | 12.7 |  |  |  |  |  | 
2 | B2 |  | 35 | 23 | 32 |  |  | 
3 | B3 |  | 13 | 53 | 13 | 11 | 49 | 11
4 | B4 |  |  |  |  | 9 | 31 | 18
